Assay [1] concerns the target human CD94 (human) (UniProt Q13241). Description: table column 'HLA-E blocking'; flow cytometry on NK cells of healthy donor PBMCs, antibody at saturating concentration, blocked ligand PE labeled HLA-E tetramer; percent blocking = 100-((percent HLA-E positive with antibody)/(percent HLA-E positive with isotype)*100). A general note: In flow cytometry, cells or beads pass a laser one at a time.

Assay [2] has the same target. Description: table column 'Affinity on human NK cells'; flow cytometry titration on human primary NK cells (the filing gives these affinities as EC50 of the titration curve).
The target is the same in assay [3]. Description: HLA-E tetramer blocking on healthy-donor PBMC NK cells, flow cytometry; competitor HLA-E tetramer.
The target is the same in assay [4]. Description: competition assay, flow cytometry on CD3-CD56+ NK cells of healthy donor PBMCs; labeled HP-3B1 titrated in the presence of 1E4 at 11 µg/ml.
Assay [5] shares this target. Description: competition assay, flow cytometry on NK cells of healthy donor PBMCs; labeled HP-3B1 titrated, concurrently Human IgG1 control.
For assay [6] the target is unchanged. Description: competition assay, flow cytometry on CD3-CD56+ NK cells of healthy donor PBMCs; labeled HP-3B1 titrated, concurrently Human IgG1 control (or 18H3 at 1.3 µg/ml).

The term EC50 (read off the curve) denotes the concentration giving half of the maximal effect.

Sequence of human CD94 (human) (Q13241 whole entry): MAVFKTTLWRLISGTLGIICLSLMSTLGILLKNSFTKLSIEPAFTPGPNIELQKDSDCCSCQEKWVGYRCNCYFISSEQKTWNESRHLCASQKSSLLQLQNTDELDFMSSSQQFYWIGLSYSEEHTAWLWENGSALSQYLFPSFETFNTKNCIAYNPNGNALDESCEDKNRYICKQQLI

In turn, anti-CD94 antibody clone HP-3B1 returned an HLA-E blocking with human CD94 (human) [1] of 99.8%. Moreover, in the assay with human CD94 (human) [2], the Affinity on human NK cells was determined as 3 nM. Further, the percent HLA-E blocking with human CD94 (human) [3] was over 40%. The EC50 (read off the curve) with human CD94 (human) [4] is 2 nM; with human CD94 (human) [5], 3 nM; with human CD94 (human) [6] it was 3 nM.

anti-CD94 antibody clone DX22: in the assay with human CD94 (human) [1], the HLA-E blocking turned out to be 99%. In the assay with human CD94 (human) [2], this substance showed an Affinity on human NK cells of 0.15 nM. The same substance showed a percent HLA-E blocking with human CD94 (human) [3] of over 40%.

The record behind these values is US20220127365A1.
